From article PMC10357448

Experiment: In vitro trypsin digestion, SDS-PAGE densitometry
Details: glycan changed form; control: WT (HEK293), one N-glycan

B1: Interleukin-4 (IL-4): WT (P. pastoris) (protein)
parent chain: MGLTSQLLPPLFFLLACAGNFVHGHKCDITLQEIIKTLNSLTEQKTLCTELTVTDIFAASKNTTEKETFCRAATVLRQFYSHHEKDTRCLGATAQQFHRHKQLIRFLKRLDRNLWGLAGLNSCPVKEANQSTLENFLERLKTIMREKYSKCSS
degradation_or_half_life, half_life: decreases, 2.6 ± 0.2 vs 4.9 ± 0.7
